The values below come from patent US7098310B1, “Heterodimers of retinoid X receptors (RXRS) and other steroid hormone receptors” (Ligand Pharmaceuticals, priority 1991, dated 2006).

Assay [1] deals with T1, retinoid x receptor (RXRα) (human, UniProt P19793 1-462).
T1 construct: mature; In vitro translated full length receptor; 35S-labelled in the column and immunoprecipitation experiments
T1 sequence (looked up): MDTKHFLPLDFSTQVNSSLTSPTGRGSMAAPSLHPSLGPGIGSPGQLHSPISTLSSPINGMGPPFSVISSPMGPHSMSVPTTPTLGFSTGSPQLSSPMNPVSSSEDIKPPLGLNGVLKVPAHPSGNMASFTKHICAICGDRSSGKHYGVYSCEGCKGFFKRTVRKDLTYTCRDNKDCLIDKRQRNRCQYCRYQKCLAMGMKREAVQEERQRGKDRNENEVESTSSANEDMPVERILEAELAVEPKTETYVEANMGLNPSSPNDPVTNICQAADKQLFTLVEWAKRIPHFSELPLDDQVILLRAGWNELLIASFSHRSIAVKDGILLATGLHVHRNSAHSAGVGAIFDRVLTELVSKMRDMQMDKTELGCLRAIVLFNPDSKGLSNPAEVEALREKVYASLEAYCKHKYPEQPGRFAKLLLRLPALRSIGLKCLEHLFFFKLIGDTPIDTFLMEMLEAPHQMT
In words: gel retardation, 32P palindromic TRE, in vitro translated receptors. As for the experimental part:
(§1) After incubation at room temperature for 45 minutes, the effect of antibody on slow migrating complexes was analyzed by gel retardation using ^32-labelled palindromic TRE as a probe. As a control, receptor mixtures were also incubated with preimmune serum (NI).
(§2) In vitro translated receptor protein (1 to 5 µl depending on the translation efficiency) was incubated with the ^32P-labeled oligonucleotides in a 20-µl reaction mixture containing 10 mM hepes buffer, pH 7.9, 50 mM KCl, 1 mM DTT, 2.5 mM MgCl, 10% glycerol, and 1 µg of poly(dI-dC) at 25° C. for 20 minutes. In general, relative low receptor concentration was used to obtain the clear effect of heterodimer formation. The reaction mixture was then loaded on a 5% nondenaturing polyacrylamide gel containing 0.5× TBE (1×TBE=0.089 M TRIS-borate, 0.089 M boric acid, and 0.002 M EDTA). […] When antibody was used, 1 µl of the antiserum was incubated with the specific translation products at room temperature for 45 minutes before performing the experiments described above.

The target in assay [2] is T2, retinoic acid receptor RARγ (UniProt P13631 1-454, limits assumed).
T2 construct: mature; In vitro translated
T2 sequence (looked up): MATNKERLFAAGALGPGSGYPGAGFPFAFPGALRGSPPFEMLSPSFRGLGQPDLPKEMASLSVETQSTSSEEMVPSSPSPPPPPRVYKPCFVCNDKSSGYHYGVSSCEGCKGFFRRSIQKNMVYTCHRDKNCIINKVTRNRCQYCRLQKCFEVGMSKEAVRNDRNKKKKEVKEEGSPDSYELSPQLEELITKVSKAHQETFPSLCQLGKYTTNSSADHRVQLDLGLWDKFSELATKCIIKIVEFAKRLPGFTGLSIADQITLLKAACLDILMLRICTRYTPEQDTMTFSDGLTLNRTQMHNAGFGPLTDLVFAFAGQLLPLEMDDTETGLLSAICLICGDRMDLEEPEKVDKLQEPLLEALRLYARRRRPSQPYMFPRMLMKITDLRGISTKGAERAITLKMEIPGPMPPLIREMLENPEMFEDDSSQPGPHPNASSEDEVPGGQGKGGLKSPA
Described as above. How it is done: as §1, §2

Assay [3] deals with T3, thyroid hormone receptor TRβ (human, UniProt P10828 1-461).
T3 construct: mature; In vitro translated; also called TR-B; c-erb-A-B
T3 sequence (looked up): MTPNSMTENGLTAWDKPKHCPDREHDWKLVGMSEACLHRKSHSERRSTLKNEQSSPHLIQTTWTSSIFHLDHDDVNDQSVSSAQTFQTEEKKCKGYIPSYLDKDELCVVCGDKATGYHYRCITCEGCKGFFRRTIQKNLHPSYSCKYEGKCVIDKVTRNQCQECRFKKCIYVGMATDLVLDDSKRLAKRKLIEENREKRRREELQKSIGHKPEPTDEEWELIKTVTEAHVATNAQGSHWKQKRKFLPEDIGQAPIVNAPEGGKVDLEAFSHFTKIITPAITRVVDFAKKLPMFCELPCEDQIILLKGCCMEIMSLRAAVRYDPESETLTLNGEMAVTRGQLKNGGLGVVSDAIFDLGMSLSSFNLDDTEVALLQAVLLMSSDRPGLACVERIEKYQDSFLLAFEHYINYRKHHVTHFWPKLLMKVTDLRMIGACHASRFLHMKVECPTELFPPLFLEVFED
In words: gel retardation, 32P palindromic TRE (data not shown).

Assay [4] addresses T4, retinoic acid receptor RARα (UniProt P10276 1-462, limits assumed).
T4 construct: mature; In vitro translated
T4 sequence (looked up): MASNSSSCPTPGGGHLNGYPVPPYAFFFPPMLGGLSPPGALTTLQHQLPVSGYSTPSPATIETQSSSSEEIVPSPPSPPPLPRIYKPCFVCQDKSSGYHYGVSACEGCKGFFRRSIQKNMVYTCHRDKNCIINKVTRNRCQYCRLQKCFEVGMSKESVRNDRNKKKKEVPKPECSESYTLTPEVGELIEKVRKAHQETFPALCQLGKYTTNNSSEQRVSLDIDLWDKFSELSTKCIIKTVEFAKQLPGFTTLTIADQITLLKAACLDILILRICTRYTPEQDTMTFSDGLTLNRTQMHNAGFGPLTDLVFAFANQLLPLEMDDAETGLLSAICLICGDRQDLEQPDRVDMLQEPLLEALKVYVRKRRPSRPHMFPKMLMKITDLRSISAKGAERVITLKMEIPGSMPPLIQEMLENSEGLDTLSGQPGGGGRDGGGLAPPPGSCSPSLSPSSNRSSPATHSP
The description is as above.

Assay [5] deals with T5, retinoic acid receptor RARβ (UniProt P10826 1-455, limits assumed).
T5 construct: mature; In vitro translated
T5 sequence (looked up): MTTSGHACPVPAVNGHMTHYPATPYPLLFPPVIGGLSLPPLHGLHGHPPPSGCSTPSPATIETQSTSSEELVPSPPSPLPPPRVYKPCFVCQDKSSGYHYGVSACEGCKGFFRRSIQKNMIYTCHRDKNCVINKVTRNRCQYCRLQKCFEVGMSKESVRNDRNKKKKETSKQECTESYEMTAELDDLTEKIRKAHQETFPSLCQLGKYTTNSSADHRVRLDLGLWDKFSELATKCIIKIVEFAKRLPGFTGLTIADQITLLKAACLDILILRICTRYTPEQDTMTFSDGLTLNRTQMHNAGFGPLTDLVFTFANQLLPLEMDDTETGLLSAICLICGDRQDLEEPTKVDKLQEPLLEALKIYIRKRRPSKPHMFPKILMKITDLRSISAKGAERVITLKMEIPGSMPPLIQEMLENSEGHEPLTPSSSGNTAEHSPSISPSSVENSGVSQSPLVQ
The description is as above.

B1: TRαm3 (receptor, UniProt P63059-2 1-167, looked up)
chain: MEQKPSKVECGSDPEENSARSPDGKRKRKNGQCPLKSSMSGYIPSYLDKDEQCVVCGDKATGYHYRCITCEGCKGFFRRTIQKNLHPTYSCKYDSCCVIDKITRNQCQLCRFKKCIAVGMAMDLVLDDSKRVAKRKLIEQNRERRRKEEMIRSLQQRPEPTPEEWDL
notes: In vitro translated deletion mutant
With B1, the binding result in assay [1] is reported as “no binding”.

B2: RARγm1 (receptor, UniProt P13631 1-352, looked up)
chain: MATNKERLFAAGALGPGSGYPGAGFPFAFPGALRGSPPFEMLSPSFRGLGQPDLPKEMASLSVETQSTSSEEMVPSSPSPPPPPRVYKPCFVCNDKSSGYHYGVSSCEGCKGFFRRSIQKNMVYTCHRDKNCIINKVTRNRCQYCRLQKCFEVGMSKEAVRNDRNKKKKEVKEEGSPDSYELSPQLEELITKVSKAHQETFPSLCQLGKYTTNSSADHRVQLDLGLWDKFSELATKCIIKIVEFAKRLPGFTGLSIADQITLLKAACLDILMLRICTRYTPEQDTMTFSDGLTLNRTQMHNAGFGPLTDLVFAFAGQLLPLEMDDTETGLLSAICLICGDRMDLEEPEKVDK
notes: In vitro translated deletion mutant; also called RARγml
As to B2, the binding result in assay [1] is recorded as “no binding”.

B3: RXRαm5 (receptor, human, UniProt P19793 198-462, looked up)
chain: MGMKREAVQEERQRGKDRNENEVESTSSANEDMPVERILEAELAVEPKTETYVEANMGLNPSSPNDPVTNICQAADKQLFTLVEWAKRIPHFSELPLDDQVILLRAGWNELLIASFSHRSIAVKDGILLATGLHVHRNSAHSAGVGAIFDRVLTELVSKMRDMQMDKTELGCLRAIVLFNPDSKGLSNPAEVEALREKVYASLEAYCKHKYPEQPGRFAKLLLRLPALRSIGLKCLEHLFFFKLIGDTPIDTFLMEMLEAPHQMT
With B3, in assay [2], the binding result is given as “no binding”.

B4: RXRαm1 (receptor, human, UniProt P19793 1-402, looked up)
chain: MDTKHFLPLDFSTQVNSSLTSPTGRGSMAAPSLHPSLGPGIGSPGQLHSPISTLSSPINGMGPPFSVISSPMGPHSMSVPTTPTLGFSTGSPQLSSPMNPVSSSEDIKPPLGLNGVLKVPAHPSGNMASFTKHICAICGDRSSGKHYGVYSCEGCKGFFKRTVRKDLTYTCRDNKDCLIDKRQRNRCQYCRYQKCLAMGMKREAVQEERQRGKDRNENEVESTSSANEDMPVERILEAELAVEPKTETYVEANMGLNPSSPNDPVTNICQAADKQLFTLVEWAKRIPHFSELPLDDQVILLRAGWNELLIASFSHRSIAVKDGILLATGLHVHRNSAHSAGVGAIFDRVLTELVSKMRDMQMDKTELGCLRAIVLFNPDSKGLSNPAEVEALREKVYASLEA
notes: range: lacks the carboxyterminal 60 amino acids; In vitro translated deletion mutant
On to B4, for which the binding result in assay [2], in assay [3], in assay [4] and in assay [5] was “no binding” throughout.

B5: RXRαm6 (receptor, human, UniProt P19793 1-462, looked up)
chain: MDTKHFLPLDFSTQVNSSLTSPTGRGSMGMKREAVQEERQRGKDRNENEVESTSSANEDMPVERILEAELAVEPKTETYVEANMGLNPSSPNDPVTNICQAADKQLFTLVEWAKRIPHFSELPLDDQVILLRAGWNELLIASFSHRSIAVKDGILLATGLHVHRNSAHSAGVGAIFDRVLTELVSKMRDMQMDKTELGCLRAIVLFNPDSKGLSNPAEVEALREKVYASLEAYCKHKYPEQPGRFAKLLLRLPALRSIGLKCLEHLFFFKLIGDTPIDTFLMEMLEAPHQMT
notes: as for B1
As to B5, the binding result in assay [2] was “no binding”.

B6: TRαm2 (receptor, UniProt P63059-2 1-213, looked up)
chain: MEQKPSKVECGSDPEENSARSPDGKRKRKNGQCPLKSSMSGYIPSYLDKDEQCVVCGDKATGYHYRCITCEGCKGFFRRTIQKNLHPTYSCKYDSCCVIDKITRNQCQLCRFKKCIAVGMAMDLVLDDSKRVAKRKLIEQNRERRRKEEMIRSLQQRPEPTPEEWDLIHVATEAHRSTNAQGSHWKQRRKFLPDDIGQSPIVSMPDGDKVDLE
notes: as for B1
In the case of B6, in assay [1], the binding result is “no binding”.

B7: RXRαm4 (receptor, human, UniProt P19793 61-462, looked up)
chain: MGPPFSVISSPMGPHSMSVPTTPTLGFSTGSPQLSSPMNPVSSSEDIKPPLGLNGVLKVPAHPSGNMASFTKHICAICGDRSSGKHYGVYSCEGCKGFFKRTVRKDLTYTCRDNKDCLIDKRQRNRCQYCRYQKCLAMGMKREAVQEERQRGKDRNENEVESTSSANEDMPVERILEAELAVEPKTETYVEANMGLNPSSPNDPVTNICQAADKQLFTLVEWAKRIPHFSELPLDDQVILLRAGWNELLIASFSHRSIAVKDGILLATGLHVHRNSAHSAGVGAIFDRVLTELVSKMRDMQMDKTELGCLRAIVLFNPDSKGLSNPAEVEALREKVYASLEAYCKHKYPEQPGRFAKLLLRLPALRSIGLKCLEHLFFFKLIGDTPIDTFLMEMLEAPHQMT
notes: range 61-462; 35S-labelled in the column experiment; also called mutant RXRαm4
In the case of B7, the binding result in assay [3] was “binds”.

B8: RXRαm3 (receptor, human, UniProt P19793 28-462, looked up)
chain: MAAPSLHPSLGPGIGSPGQLHSPISTLSSPINGMGPPFSVISSPMGPHSMSVPTTPTLGFSTGSPQLSSPMNPVSSSEDIKPPLGLNGVLKVPAHPSGNMASFTKHICAICGDRSSGKHYGVYSCEGCKGFFKRTVRKDLTYTCRDNKDCLIDKRQRNRCQYCRYQKCLAMGMKREAVQEERQRGKDRNENEVESTSSANEDMPVERILEAELAVEPKTETYVEANMGLNPSSPNDPVTNICQAADKQLFTLVEWAKRIPHFSELPLDDQVILLRAGWNELLIASFSHRSIAVKDGILLATGLHVHRNSAHSAGVGAIFDRVLTELVSKMRDMQMDKTELGCLRAIVLFNPDSKGLSNPAEVEALREKVYASLEAYCKHKYPEQPGRFAKLLLRLPALRSIGLKCLEHLFFFKLIGDTPIDTFLMEMLEAPHQMT
notes: range 28-C-terminus
For the molecule B8, the binding result in assay [3] is reported as “binds”.
